The target of test [1] is T1, EGFR-pY1068 phosphopeptide, LPVPE(p)….
T1 sequence (peptide, phosphotyrosine at (p)Y (residue 6 of the printed peptide; EGFR Tyr1068)): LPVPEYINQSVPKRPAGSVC
Description: ECL 4-spot multi-array binding assay: peptide-BSA spot, biotinylated TnT protein, Sulfo-TAG streptavidin.

For test [2], the target named is EGFR-pY1148 phosphopeptide, …(p)…. The test is described as above.
In test [3] the target is EGFR-pY992 phosphopeptide, DADE(p)…. The test is described as above.
The target of test [4] is T1, EGFR-pY1068 phosphopeptide, LPVPE(p)…. Description: ECL 7-spot plate screen, peptide-BSA spot, biotinylated TnT protein, Ru-streptavidin; signal normalized in two steps.
The target in test [5] is EGFR-pY1148 phosphopeptide, …(p)…. Described as above.
The target of test [6] is EGFR-pY992 phosphopeptide, DADE(p)…. Described as above.
Test [7] has as its target phosphorylated EGFR (Sigma Chemical Co, self-phosphorylated) (UniProt P00533). Description: TnT protein on streptavidin plate, […] phosphorylated EGFR; bound EGFR detected with TAG-labeled anti-EGFR (clone 225).
Test [8] has the same target. In words: TnT protein on streptavidin plate, […] phosphorylated EGFR; bound EGFR detected by its kinase activity on pEY, 1 hr reaction.
For test [9] the target is unchanged. In words: TnT protein on streptavidin plate, […] phosphorylated EGFR; bound EGFR detected by its kinase activity on pEY, 12 hr reaction.
For a further test, the target named is BSA (control coating) (UniProt P02769). Description: ECL plate binding assay: BSA control on electrode, biotinylated TnT protein, Sulfo-TAG streptavidin.
Test [10] has as its target IkBa phosphopeptide (IkBa-24pp), …(p)SGLD(p)SMKDEEYC
Description: ECL plate binding assay: peptide-BSA on electrode, biotinylated TnT protein, Sulfo-TAG streptavidin.

Test [11] deals with c-Myc phosphopeptide (Myc-p58Tp62S), …(p)TPPL(p)SPSRRSGL
The description is as above.

Test [12] has as its target IkBa phosphopeptide (IkBa-24pp), …(p)SGLD(p)SMKDEEYC
In words: ECL 4-spot multi-array binding assay: peptide-BSA spot, biotinylated TnT protein, Sulfo-TAG streptavidin.

The target is the same in test [13]. In words: ECL 4-spot multi-array binding assay: peptide-BSA spot.
For test [14] the target is unchanged. In words: ECL 7-spot plate screen, peptide-BSA spot, biotinylated TnT protein, Ru-streptavidin; signal normalized in two steps.
Test [15] addresses c-Myc phosphopeptide (Myc-p58Tp62S), …(p)TPPL(p)SPSRRSGL
The test is described as above.

Several values for one entry are separate records, joined by “and”; a condition that tells them apart may be missing. Identical values can stand only once. Like-named read-outs stand apart in the source and are kept apart here.

Sequence of BSA (control coating) (P02769 25-607 limits assumed): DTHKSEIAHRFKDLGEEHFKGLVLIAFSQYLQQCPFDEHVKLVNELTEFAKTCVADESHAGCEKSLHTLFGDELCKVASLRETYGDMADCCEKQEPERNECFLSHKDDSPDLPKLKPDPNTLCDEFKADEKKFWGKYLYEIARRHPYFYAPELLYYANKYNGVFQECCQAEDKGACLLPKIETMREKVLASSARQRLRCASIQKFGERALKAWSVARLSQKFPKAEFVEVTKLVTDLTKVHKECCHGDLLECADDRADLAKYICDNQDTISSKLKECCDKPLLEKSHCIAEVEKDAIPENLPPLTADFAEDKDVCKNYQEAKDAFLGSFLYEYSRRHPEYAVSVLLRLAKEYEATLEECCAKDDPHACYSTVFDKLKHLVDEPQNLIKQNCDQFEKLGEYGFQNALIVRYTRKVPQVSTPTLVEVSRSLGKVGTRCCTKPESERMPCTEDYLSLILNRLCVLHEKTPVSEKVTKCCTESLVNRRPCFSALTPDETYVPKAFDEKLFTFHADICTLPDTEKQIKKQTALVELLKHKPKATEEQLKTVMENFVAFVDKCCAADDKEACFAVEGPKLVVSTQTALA
Sequence of c-Myc phosphopeptide (Myc-p58Tp62S), …(p)TPPL(p)SPSRRSGL (peptide, as listed by the source): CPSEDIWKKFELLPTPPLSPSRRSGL
Sequence of IkBa phosphopeptide (IkBa-24pp), …(p)SGLD(p)SMKDEEYC (peptide, as listed by the source): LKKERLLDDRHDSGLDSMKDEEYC
Sequence of EGFR-pY992 phosphopeptide, DADE(p)… (peptide, as listed by the source): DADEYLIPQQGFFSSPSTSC
Sequence of βTRCP2 (EST clone IMAGE 4237375), in vitro translated, biotin-labelled (Q9UKB1 whole entry): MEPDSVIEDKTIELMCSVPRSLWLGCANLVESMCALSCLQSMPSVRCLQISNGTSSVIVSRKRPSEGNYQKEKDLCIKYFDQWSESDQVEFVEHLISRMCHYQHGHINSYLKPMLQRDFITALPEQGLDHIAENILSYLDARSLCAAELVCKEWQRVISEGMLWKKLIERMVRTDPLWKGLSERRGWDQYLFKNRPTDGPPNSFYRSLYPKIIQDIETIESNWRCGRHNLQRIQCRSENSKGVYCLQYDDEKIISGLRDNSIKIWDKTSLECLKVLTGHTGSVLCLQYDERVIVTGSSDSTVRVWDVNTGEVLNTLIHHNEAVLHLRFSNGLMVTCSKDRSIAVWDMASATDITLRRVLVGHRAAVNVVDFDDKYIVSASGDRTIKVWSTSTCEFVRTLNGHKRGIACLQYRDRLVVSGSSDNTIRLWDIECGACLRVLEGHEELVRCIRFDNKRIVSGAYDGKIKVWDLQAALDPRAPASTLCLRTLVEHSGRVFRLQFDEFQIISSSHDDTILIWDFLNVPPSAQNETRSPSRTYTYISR
Sequence of βTRCP1 (EST clone IMAGE 3491843), in vitro translated, biotin-labelled (Q9Y297 whole entry): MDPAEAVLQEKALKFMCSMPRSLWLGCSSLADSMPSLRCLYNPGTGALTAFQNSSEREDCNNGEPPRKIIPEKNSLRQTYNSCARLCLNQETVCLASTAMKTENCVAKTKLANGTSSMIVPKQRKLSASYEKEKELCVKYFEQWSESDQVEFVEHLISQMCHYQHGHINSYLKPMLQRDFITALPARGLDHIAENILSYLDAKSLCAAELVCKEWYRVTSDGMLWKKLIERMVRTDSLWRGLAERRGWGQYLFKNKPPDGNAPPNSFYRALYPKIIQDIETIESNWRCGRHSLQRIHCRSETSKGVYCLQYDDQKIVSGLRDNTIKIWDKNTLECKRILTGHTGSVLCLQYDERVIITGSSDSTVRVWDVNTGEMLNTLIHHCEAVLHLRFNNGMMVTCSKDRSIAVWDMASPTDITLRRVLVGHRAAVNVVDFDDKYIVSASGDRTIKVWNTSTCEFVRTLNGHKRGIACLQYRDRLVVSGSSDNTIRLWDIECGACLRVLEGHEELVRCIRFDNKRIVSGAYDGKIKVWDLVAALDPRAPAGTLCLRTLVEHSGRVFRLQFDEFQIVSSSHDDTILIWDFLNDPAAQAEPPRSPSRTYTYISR

Consider “Phospholipase C gamma 1 (PLCγ) (EST clone IMAGE 4419252), in vitro translated, biotin-labelled (from UniProt P19174 1-1290) (enzyme)”, for which the ECL signal in [1] came out at 1480 ECL signal; in [2], 110 ECL signal; in test [3] it was 1400 ECL signal; in [7], 30400 ECL signal; in test [8], 18000 ECL signal; in test [9] it was 39800 ECL signal. For the same substance, the values for the normalized ECL signal in test [4], in test [5] and in test [6] were 55, 4 and 10, respectively.
As for “Shc (EST clone IMAGE 3909654), in vitro translated, biotin-labelled (from UniProt P29353 1-473)”, the normalized ECL signal in [4] turned out to be 1; in [5], 3; in [6], 1.
Turning to “Shc (EST clone IMAGE 3909921), in vitro translated, biotin-labelled (from UniProt P29353 1-473)”, the values for the normalized ECL signal in test [4], in [5] and in test [6] were 1, 5 and 1, respectively.
With “Shc (EST clone IMAGE 3911953), in vitro translated, biotin-labelled (from UniProt P29353 1-473)”, the normalized ECL signal amounted to 1 in [4], 3 in [5] and 1 in [6].
Regarding “Shc (EST clone IMAGE 3914467), in vitro translated, biotin-labelled (from UniProt P29353 1-473)”, the normalized ECL signal in [4] came out at 1; in test [5] it was 3; in test [6], 1.
Turning to “mCBP (EST clone IMAGE 3872466), in vitro translated, biotin-labelled”, the results for the Average ECL signal (with BSA (control coating); in test [10]; in [11]) were 352 ECL signal, 371 ECL signal and 351 ECL signal, respectively. Also, the ECL signal in test [1] was 126 ECL signal; in [2], 278 ECL signal; in test [3], 498 ECL signal; in [12], 446 ECL signal.
Substance “βTRCP1 (EST clone IMAGE 3491843), in vitro translated, biotin-labelled (from UniProt Q9Y297 1-605)” yielded a fold ECL signal over TnT reaction without exogenous DNA in test [13] of 100 fold. For the same substance, the Average ECL signal with BSA (control coating) is 1720 ECL signal; in test [10], 40900 ECL signal; in test [11], 2120 ECL signal. The ECL signal in [1] was found to be 24 ECL signal; in test [2] it was 36 ECL signal; in test [12] it was 2470 ECL signal. The normalized ECL signal is 1 in [5]; 12 in test [14]; 23 in [14] (positive control preparation); 8 and 4 in test [15].
As for “βTRCP2 (EST clone IMAGE 4237375), in vitro translated, biotin-labelled (from UniProt Q9UKB1 1-542)”, the fold ECL signal over TnT reaction without exogenous DNA in test [13] stood at 100 fold. The Average ECL signal with BSA (control coating) stood at 672 ECL signal; in test [10], 21500 ECL signal; in test [11], 896 ECL signal. The ECL signal in test [1] was 24 ECL signal; in test [2], 35 ECL signal; in test [12], 5040 ECL signal. The normalized ECL signal in test [5] amounted to 1; in test [15] it was 10.

(Values after patent US20030207290A1.)
